Measured values: paper PMC8629256, “Structural and functional studies of D109A human αB-crystallin contributing to the development of cataract and cardiomyopathy diseases” (PLoS ONE, 2021)

Molecular target: the molecule itself
Assay: AUC; sedimentation velocity, 20 °C, 40,000 rpm, 40 mM sodium phosphate, 100 mM NaCl, 1 mM EDTA, 3 mM NaN3, pH 7.0; wild type 1.0 mg/mL, D109A 0.5 mg/mL; c(s) and c(M) by SEDFIT; run after dialysis and again after 24 h at 20 °C; size of the oligomer

| Protein | stoichiometry N |
| --- | --- |
| wild-type human αB-crystallin (natural protein, human αB-crystallin (HSPB5), 175 amino acids, coded by CRYAB; cDNA cloned in pET-28b(+); Polydisperse oligomer; 32 subunits is the number worked out for the majority species in AUC (about 650 kDa); also called heat shock protein β5; HSPB5; source: E. coli BL21 (DE3), purified (DEAE-cellulose anion exchange in urea buffer, dialysed against water); copies: 32) MDIAIHHPWIRRPFFPFHSPSRLFDQFFGEHLLESDLFPTSTSLSPFYLRPPSFLRAPSWFDTGLSEMRLEKDRFSVNLDVKHFSPEELKVKVLGDVIEVHGKHEERQDEHGFISREFHRKYRIPADVDPLTITSSLSSDGVLTVNGPRKQVSGPERTIPITREEKPAVTAAPKK | 32 subunits |
| D109A mutant human αB-crystallin (natural protein, human αB-crystallin (HSPB5) with the patient mutation D109A (cDNA 326 A>C), made by site-directed mutagenesis of the wild-type cDNA in pET-28b(+); Polydisperse oligomer; 53 subunits is the number worked out for the majority species in AUC (about 1,060 kDa); larger ensembles of 1500-3000 kDa are also seen; The mutation is reported in patients with myofibrillar myopathy; No tag is named; see the …) MDIAIHHPWIRRPFFPFHSPSRLFDQFFGEHLLESDLFPTSTSLSPFYLRPPSFLRAPSWFDTGLSEMRLEKDRFSVNLDVKHFSPEELKVKVLGDVIEVHGKHEERQAEHGFISREFHRKYRIPADVDPLTITSSLSSDGVLTVNGPRKQVSGPERTIPITREEKPAVTAAPKK | 53 subunits |
